# Experimental data reported in patent US6180103A, “Peptide p277 analogs, and pharmaceutical compositions comprising them for treatment or diagnosis of diabetes” (Yeda Research and Development Co., Ltd., priority 1994, dated 2001).
# B1: hsp60: whole recombinant hsp60; human 60 kDa heat shock protein (protein, UniProt P10809 27-573, looked up)
# 60 kDa heat shock protein, …: AKDVKFGADARALMLQGVDLLADAVAVTMGPKGRTVIIEQSWGSPKVTKDGVTVAKSIDLKDKYKNIGAKLVQDVANNTNEEAGDGTTTATVLARSIAKEGFEKISKGANPVEIRRGVMLAVDAVIAELKKQSKPVTTPEEIAQVATISANGDKEIGNIISDAMKKVGRKGVITVKDGKTLNDELEIIEGMKFDRGYISPYFINTSKGQKCEFQDAYVLLSEKKISSIQSIVPALEIANAHRKPLVIIAEDVDGEALSTLVLNRLKVGLQVVAVKAPGFGDNRKNQLKDMAIATGGAVFGEEGLTLNLEDVQPHDLGKVGEVIVTKDDAMLLKGKGDKAQIEKRIQEIIEQLDVTTSEYEKEKLNERLAKLSDGVAVLKVGGTSDVEVNEKKDRVTDALNATRAAVEEGIVLGGGCALLRCIPALDSLTPANEDQKIGIEIIKRTLKIPAMTIAKNAGVEGSLIVEKIMQSSSEVGYDAMAGDFVNMVEKGIIDPTKVVRTALLDAAGVASLLTTAEVVVTEIPKEEKDPGMGAMGGMGGGMGGGMF
# Tested on: T cells of IDDM patients and healthy blood-donors
# Experiment: Proliferative T cell response of IDDM patients and healthy blood donors
# Assay type: cell-based, human
# Conditions: for Incidence of T-cell responses: positive = SI of 3 or greater
molecule,measurement,setting,value
B1,Incidence of T-cell responses,Healthy blood donors (n=14),21%
same,T-cell responses (stimulation index),"IDDM patient 1. patient eight, 3.5 months since diagnosis",+ (SI values of 3 or greater were considered to be positive)
same,T-cell responses (stimulation index),"IDDM patient 3. H, 6 months since diagnosis",+ (SI values of 3 or greater were considered to be positive)
same,T-cell responses (stimulation index),"IDDM patient 4. patient seven, 3 weeks since diagnosis",+ (SI values of 3 or greater were considered to be positive)
same,T-cell responses (stimulation index),"IDDM patient 4. patient seven, 5 weeks since diagnosis",+ (SI values of 3 or greater were considered to be positive)
same,T-cell responses (stimulation index),"IDDM patient 5. SD, 6 weeks since diagnosis",+ (SI values of 3 or greater were considered to be positive)
same,T-cell responses (stimulation index),"IDDM patient 6. P, 4 weeks since diagnosis",- (SI values of 3 or greater were considered to be positive)
same,T-cell responses (stimulation index),"IDDM patient 7. G, 5 weeks since diagnosis",+ (SI values of 3 or greater were considered to be positive)
same,T-cell responses (stimulation index),"IDDM patient 7. G, 7 weeks since diagnosis",+ (SI values of 3 or greater were considered to be positive)
same,T-cell responses (stimulation index),"IDDM patient 9. patient two, 2 weeks since diagnosis",+ (SI values of 3 or greater were considered to be positive)
same,T-cell responses (stimulation index),"IDDM patient 10. T, 4 weeks since diagnosis",+ (SI values of 3 or greater were considered to be positive)
same,T-cell responses (stimulation index),"IDDM patient 12. patient nine, 6 weeks since diagnosis",- (SI values of 3 or greater were considered to be positive)
same,T-cell responses (stimulation index),"IDDM patient 15. patient five, 3 weeks since diagnosis",- (SI values of 3 or greater were considered to be positive)
same,T-cell responses (stimulation index),"IDDM patient 16. patient one, 2 months since diagnosis",+ (SI values of 3 or greater were considered to be positive)
same,T-cell responses (stimulation index),"IDDM patient 17. patient six, 4 weeks since diagnosis",- (SI values of 3 or greater were considered to be positive)
same,T-cell responses (stimulation index),"IDDM patient 18. patient four, 4 weeks since diagnosis",+ (SI values of 3 or greater were considered to be positive)
same,T-cell responses (stimulation index),"IDDM patient 19. A, 11.5 years since diagnosis",+ (SI values of 3 or greater were considered to be positive)
same,T-cell responses (stimulation index),"IDDM patient 20. N, 7.5 years since diagnosis",+ (SI values of 3 or greater were considered to be positive)
same,T-cell responses (stimulation index),"IDDM patient 21. A, 5.7 years since diagnosis",+ (SI values of 3 or greater were considered to be positive)
same,Incidence of T-cell responses,IDDM patients (n=21),86%
same,T-cell responses (stimulation index),healthy blood donor 1,- (SI values of 3 or greater were considered to be positive)
same,T-cell responses (stimulation index),healthy blood donor 2,- (SI values of 3 or greater were considered to be positive)
same,T-cell responses (stimulation index),healthy blood donor 4,- (SI values of 3 or greater were considered to be positive)
same,T-cell responses (stimulation index),healthy blood donor 5,+ (SI values of 3 or greater were considered to be positive)
same,T-cell responses (stimulation index),healthy blood donor 6,- (SI values of 3 or greater were considered to be positive)
same,T-cell responses (stimulation index),healthy blood donor 7,- (SI values of 3 or greater were considered to be positive)
same,T-cell responses (stimulation index),healthy blood donor 8,- (SI values of 3 or greater were considered to be positive)
same,T-cell responses (stimulation index),healthy blood donor 9,- (SI values of 3 or greater were considered to be positive)
same,T-cell responses (stimulation index),healthy blood donor 10,- (SI values of 3 or greater were considered to be positive)
same,T-cell responses (stimulation index),healthy blood donor 11,+ (SI values of 3 or greater were considered to be positive)
same,T-cell responses (stimulation index),healthy blood donor 12,- (SI values of 3 or greater were considered to be positive)
same,T-cell responses (stimulation index),healthy blood donor 13,+ (SI values of 3 or greater were considered to be positive)
same,T-cell responses (stimulation index),healthy blood donor 14,- (SI values of 3 or greater were considered to be positive)
